Measurements reported in PMC9894248, “Alanine synthesized by alanine dehydrogenase enables ammonium-tolerant nitrogen fixation in Paenibacillus sabinae T27”.

Tests used:
[1] = target: T1, AdeR (Paenibacillus sabinae T27, UniProt X4ZCB7 1-417); experiment: EMSA; AdeR 100-600 nM; legend misprints 'mutated GlnR-binding site'; EMSA: 20 ul, 1 ug poly[d(A-T)], 0.3 nM probe, 30 min, 25 C; binding buffer (given for protein dialysis) 20 mM HEPES pH 7.6, 1 mM EDTA, 10 mM (NH4)2SO4, 1 mM DTT, 0.2% Tween 20, 30 mM KCl. SPR: SA chip, 250 RU DNA, GlnR 0-500 nM with or without 25 nM GS; conditions: protein: recombinant; tags: N-His6; label: 3' DIG (Methods); blunt
T1 sequence: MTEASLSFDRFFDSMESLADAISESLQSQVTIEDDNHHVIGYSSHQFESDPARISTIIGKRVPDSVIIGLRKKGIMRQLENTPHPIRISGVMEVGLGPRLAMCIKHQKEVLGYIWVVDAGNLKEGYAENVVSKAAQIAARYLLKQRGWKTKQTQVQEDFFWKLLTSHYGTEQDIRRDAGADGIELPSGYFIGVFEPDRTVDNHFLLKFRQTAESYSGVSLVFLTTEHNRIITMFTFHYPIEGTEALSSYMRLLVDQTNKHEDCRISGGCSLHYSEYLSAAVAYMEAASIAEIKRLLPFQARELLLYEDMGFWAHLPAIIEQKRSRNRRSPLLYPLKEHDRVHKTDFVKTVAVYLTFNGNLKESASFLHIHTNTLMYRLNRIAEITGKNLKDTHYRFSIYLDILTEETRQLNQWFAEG

[2] = target: T1, AdeR; experiment: EMSA; AdeR 100-600 nM; EMSA: 20 ul, 1 ug poly[d(A-T)], 0.3 nM probe, 30 min, 25 C; binding buffer (given for protein dialysis) 20 mM HEPES pH 7.6, 1 mM EDTA, 10 mM (NH4)2SO4, 1 mM DTT, 0.2% Tween 20, 30 mM KCl. SPR: SA chip, 250 RU DNA, GlnR 0-500 nM with or without 25 nM GS; conditions: protein: recombinant; tags: N-His6; label: 3' DIG (Methods); blunt
[3] = target: T2, GlnR (Paenibacillus sabinae T27, UniProt X4ZZY3 1-136); experiment: SPR; GlnR alone, 0-500 nM; affinity significantly higher than site II; EMSA: 20 ul, 1 ug poly[d(A-T)], 0.3 nM probe, 30 min, 25 C; binding buffer (given for protein dialysis) 20 mM HEPES pH 7.6, 1 mM EDTA, 10 mM (NH4)2SO4, 1 mM DTT, 0.2% Tween 20, 30 mM KCl. SPR: SA chip, 250 RU DNA, GlnR 0-500 nM with or without 25 nM GS; conditions: protein: recombinant; tags: N-His6; chain copies: 2; label: 5' biotin on capture linker S3; 3' overhang 20 nt on strand 2, annealed to capture linker (strand 3)
T2 sequence: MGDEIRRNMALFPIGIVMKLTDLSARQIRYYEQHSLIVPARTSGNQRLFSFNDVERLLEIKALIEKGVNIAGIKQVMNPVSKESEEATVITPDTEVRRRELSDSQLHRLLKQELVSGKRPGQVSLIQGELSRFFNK

[4] = target: T2, GlnR; experiment: EMSA; GlnR 4-1024 nM; EMSA: 20 ul, 1 ug poly[d(A-T)], 0.3 nM probe, 30 min, 25 C; binding buffer (given for protein dialysis) 20 mM HEPES pH 7.6, 1 mM EDTA, 10 mM (NH4)2SO4, 1 mM DTT, 0.2% Tween 20, 30 mM KCl. SPR: SA chip, 250 RU DNA, GlnR 0-500 nM with or without 25 nM GS; conditions: protein: recombinant; tags: N-His6; chain copies: 2; label: 3' DIG (Methods); blunt

B1: ald1 promoter 40-bp mutated AdeR site (aldP1M) (dsDNA)
DNA 1: GAATGAAAAACTGACCTTGGATCCGTGATAAAACACAATC
DNA 2: GATTGTGTTTTATCACGGATCCAAGGTCAGTTTTTCATTC
binding result [1]: no binding

B2: ald1 promoter 40-bp AdeR site (aldP1) (dsDNA)
DNA 1: GAATGAAAAACTGACCTTCTCATTGTGATAAAACACAATC
DNA 2: GATTGTGTTTTATCACAATGAGAAGGTCAGTTTTTCATTC
binding result [2]: binds

B3: SPR probe GlnR site I (TS1) (dsDNA)
DNA 1: ATACATATGTGTAATGTAATCTGACATTTGTTTTGACGA
DNA 2: TCGTCAAAACAAATGTCAGATTACATTACACATATGTATCCTACCCTACGTCCTCCTGC
DNA 3: GCAGGAGGACGTAGGGTAGG
binding result [3]: binds

B4: nif promoter GlnR site II EMSA probe (nifR2) (dsDNA)
DNA 1: TTTTCAAGAAAGGTTGGAGTCAGGTTAACTGACACGTCGGATG
DNA 2: CATCCGACGTGTCAGTTAACCTGACTCCAACCTTTCTTGAAAA
binding result [4]: binds

B5: nif promoter GlnR site I EMSA probe (nifR1) (dsDNA)
DNA 1: AACGGAAACATGATACATATGTGTAATGTAATCTGACATTTGT
DNA 2: ACAAATGTCAGATTACATTACACATATGTATCATGTTTCCGTT
binding result [4]: binds
